This is an account of results in patent publication US20250236642A1, “PHARMACEUTICAL COMPOSITION FOR TREATMENT OR PREVENTION OF ADULT T-CELL LEUKEMIA” (NEC Corporation, priority 2022, published 2025).

One experiment has as its target HLA-A*02:01 molecule. The experiment is described as follows: flow cytometry, T2 cells.
Conditions: not given
A general note: Flow cytometry measures light scatter and fluorescence of single cells or particles in a stream.
In the case of YQLSPPITW (modifications not checked) [peptide of SEQ ID NO: 32], the -log Kd value is -3.46.

The target of the next experiment is HLA-A*02:06 molecule. Nature of the experiment: flow cytometry, RA2.6 cells.
Conditions: not given
The molecule CIDEHQWQL [peptide of SEQ ID NO: 28] displayed a -log Kd value of -5.25.
The molecule LHEEHGATL [peptide of SEQ ID NO: 79] returned a -log Kd value of more than -3.
Same read-out and setting: the same measure for YLYDPPTTI [peptide of SEQ ID NO: 4]: -5.87.
In turn, ASPSHMTSM [peptide of SEQ ID NO: 81] displayed a -log Kd value of more than -3.
For the molecule KFLEAFHEV [peptide of SEQ ID NO: 8], the -log Kd value is -5.81.
EAIDGYITL [peptide of SEQ ID NO: 47] gave a -log Kd value of -4.72.
Molecule CMIVHQGTI [peptide of SEQ ID NO: 36] registered a -log Kd value of -4.37.
The molecule LAITRKSFI [peptide of SEQ ID NO: 46] came in with a -log Kd value of -3.04.
As to LMITRKSFI [peptide of SEQ ID NO: 17], the -log Kd value is -4.53.
On to LVEEHGATL [peptide of SEQ ID NO: 43], for which the -log Kd value is -4.86.
Turning to LTEEHGATL [peptide of SEQ ID NO: 42], the -log Kd value was -4.92.
For ETLQFIDSM [peptide of SEQ ID NO: 53], the -log Kd value was -3.37.
The molecule FSNDFGQSL [peptide of SEQ ID NO: 35] had a -log Kd value of -4.71.
In turn, ARHSTIPLV [peptide of SEQ ID NO: 77] yielded a -log Kd value of more than -3.
LLNPNRQTI [peptide of SEQ ID NO: 23] came in with a -log Kd value of -3.53.
Turning to ALAPPTAQL [peptide of SEQ ID NO: 6], the -log Kd value was -6.41.
On the same count and under the same terms, under ISAYRTCWI [peptide of SEQ ID NO: 34] stands -3.14.
SLPNEKQTS [peptide of SEQ ID NO: 69]: the -log Kd value was more than -3.
Still for that read-out and setting: under LLEEHGATL [peptide of SEQ ID NO: 41] stands -5.3.
In turn, ILSDHQQSQ [peptide of SEQ ID NO: 70] yielded a -log Kd value of more than -3.
In turn, SSFEFFEEA [peptide of SEQ ID NO: 37] had a -log Kd value of -7.42.
Turning to VMQIDGVQP [peptide of SEQ ID NO: 67], the -log Kd value is -3.41.
On the same count and under the same terms, the same measure for YFFTVIFSF [peptide of SEQ ID NO: 44]: more than -4.4; for STGESAQTS [peptide of SEQ ID NO: 71]: more than -3.
For MLPQTPSHL [peptide of SEQ ID NO: 24], the -log Kd value was -3.96.
Molecule AQISAYRTC [peptide of SEQ ID NO: 50] yielded a -log Kd value of -4.09.
As for VMSHHGEKL [peptide of SEQ ID NO: 19], the -log Kd value is -4.3.
On the same count and under the same terms, under LLLFSAAAL [peptide of SEQ ID NO: 1] stands -4.96.
In turn, ATLAPAVLL [peptide of SEQ ID NO: 10] yielded a -log Kd value of -6.12.
LVITRKSFI [peptide of SEQ ID NO: 30] showed a -log Kd value of -3.61.
For LPPARHSTI [peptide of SEQ ID NO: 76], the -log Kd value was more than -3.
In turn, ATAPPTAQL [peptide of SEQ ID NO: 25] showed a -log Kd value of -6.16.
The same measure, in the same setting: under GTHLDAGTV [peptide of SEQ ID NO: 51] stands -3.66; under AQAPPTAQL [peptide of SEQ ID NO: 5], -5.85; under LTITRKSFI [peptide of SEQ ID NO: 45], -3.79.
Molecule GSPDEFSND [peptide of SEQ ID NO: 72] gave a -log Kd value of more than -3.
The same measure, in the same setting: the same measure for VLLQQFQTA [peptide of SEQ ID NO: 15]: -5.47.
On to LAEEHGATL [peptide of SEQ ID NO: 61], for which the -log Kd value was -4.5.
On to LIITRKSFI [peptide of SEQ ID NO: 29], for which the -log Kd value was -3.64.
With YTYDPPTTI [peptide of SEQ ID NO: 3], the -log Kd value is -6.17.
For LMEEHGATL [peptide of SEQ ID NO: 13], the -log Kd value was -5.68.
As to LIEEHGATL [peptide of SEQ ID NO: 40], the -log Kd value was -4.81.
ALRPAPALL [peptide of SEQ ID NO: 26]: the -log Kd value is more than -3.37.
Consider SLVLTWAAL [peptide of SEQ ID NO: 14], for which the -log Kd value is -6.24.
SPDEFSNDF [peptide of SEQ ID NO: 73]: the -log Kd value was more than -3.
In turn, YVYDPPTTI [peptide of SEQ ID NO: 2] came in with a -log Kd value of -5.55.
THLDAGTVE [peptide of SEQ ID NO: 75]: the -log Kd value is more than -3.
With ALPKIRARV [peptide of SEQ ID NO: 12], the -log Kd value is -4.78.
With LLITRKSFI [peptide of SEQ ID NO: 16], the -log Kd value was -4.63.
For the molecule GILSDHQQS [peptide of SEQ ID NO: 74], the -log Kd value was more than -3.
In the case of GYITLGKPH [peptide of SEQ ID NO: 80], the -log Kd value was more than -3.
Regarding CTDEHQWQL [peptide of SEQ ID NO: 39], the -log Kd value is -6.8.
In the case of IFADVSSST [peptide of SEQ ID NO: 78], the -log Kd value is more than -3.

For the next experiment, the target named is HLA-A*02:01 molecule. Nature of the experiment: flow cytometry, T2 cells.
Conditions: not given
The source holds these as a separate data set.
In the case of YQLSPPITW (modifications not checked) [peptide of SEQ ID NO: 32], the -log Kd value is -3.46.
In the case of IALETPVWI (modifications not checked) [peptide of SEQ ID NO: 20], the -log Kd value is -5.11.
Molecule ALPAPHLTL (modifications not checked) [peptide of SEQ ID NO: 18] showed a -log Kd value of -5.99.
ALQFLIPRL (modifications not checked) [peptide of SEQ ID NO: 22]: the -log Kd value is -5.9.
In turn, ALQPPCPNL (modifications not checked) [peptide of SEQ ID NO: 31] had a -log Kd value of -5.13.
IQYSSFHNL (modifications not checked) [peptide of SEQ ID NO: 21]: the -log Kd value is -5.29.

The target in another experiment is HLA-A*24:02 molecule. The experiment is described as follows: flow cytometry, C1R-A24 cells.
Conditions: not given
YQLSPPITW (modifications not checked) [peptide of SEQ ID NO: 32] displayed a -log Kd value of -6.76.
Take IALETPVWI (modifications not checked) [peptide of SEQ ID NO: 20]: the -log Kd value was -5.48.
ALPAPHLTL (modifications not checked) [peptide of SEQ ID NO: 18] had a -log Kd value of -6.73.
The same measure, in the same setting: under ALQFLIPRL (modifications not checked) [peptide of SEQ ID NO: 22] stands -4.96; under ALQPPCPNL (modifications not checked) [peptide of SEQ ID NO: 31], -5.31.
The same measure, in the same setting: under IQYSSFHNL (modifications not checked) [peptide of SEQ ID NO: 21] stands -6.53.

The same experiment, now with this note: remark: other sources report otherwise.
YPGWHSTTI [peptide of SEQ ID NO: 52] yielded a -log Kd value of -5.66.

In another experiment the target is HLA-A*24:02 molecule. Nature of the experiment: flow cytometry, C1R-A24 cells.
Conditions: not given
The source holds these as a separate data set.
Turning to YQLSPPITW (modifications not checked) [peptide of SEQ ID NO: 32], the -log Kd value was -5.76.

In a further experiment the target is HLA-A*02:06 molecule. The experiment is described as follows: flow cytometry, RA2.6 cells.
Conditions: not given
The source holds these as a separate data set.
In turn, YTYDPPTTI [peptide of SEQ ID NO: 3] showed a -log Kd value of -5.17.
